Reference: patent US20180303898A1 (SANFORD BURNHAM PREBYS MEDICAL DISCOVERY INSTITUTE, published 2018)
Each block holds one binder with its values, some of them ahead of it. Bridges are numbered along the chain shown (N, C = ends). Where no end group is shown, it is not given here. FAM = 5(6)-carboxyfluorescein; Ahx = NCCCCCC(=O)O

Tests used:
[1] = biological target: T1, recombinant 6x-His-tagged p32 protein (p32/p33/gC1qR/HABP1) (UniProt Q07021 74-282); test: fluorescence polarization, FAM-labeled peptide constant, p32 titrated (FIG. 2A)
T1 construct: not shown: 6x-His tag
T1 sequence (looked up): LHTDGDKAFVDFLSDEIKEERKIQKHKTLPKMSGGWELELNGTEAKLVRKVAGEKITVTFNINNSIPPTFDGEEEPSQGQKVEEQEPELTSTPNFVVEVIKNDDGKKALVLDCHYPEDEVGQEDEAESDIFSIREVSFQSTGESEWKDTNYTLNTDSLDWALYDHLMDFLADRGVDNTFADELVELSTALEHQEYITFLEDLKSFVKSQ
Procedure: FIGS. 2A-2D are graphs showing FP- and phage binding-based validation of p32 binding peptides and hit compounds. […] Measurements were performed with PheraStar FS plate reader (BMG Labtech, Ortenberg, Germany) on 384-well plate. […] (C) Assessment of hit compound binding to a non-target secondary protein, NRP-1, to determine the specificity of the hit compounds in FP assay. A known NRP-1 binding peptide, RPARPAR (SEQ ID NO:18), was used as a control. (D) Effect of the hit compounds on the TT1 phage binding to p32 protein. TT1 phage binding to p32 in the presence of 100 μM hit compounds was determined in ELISA-type of binding assay. Each data point presents average±S.D., n=4.
The assay was initially set up in 20 μl well volume in 384 well plate (Corning Life Sciences), and measurements were carried out using PheraStar FS plate reader (BMG LABTECH, Ortenberg, Germany) in quadruplicate. […] Optimal concentration of fluorescein (FAM) labeled-peptides for the assay was determined by measuring the limit of detection (LOD), signal-to-background ratio (S/B), and stability of mP value over series of peptide concentrations. In the binding assay, the concentration of FAM-peptide was kept constant, and the FP was measured over the range of target protein concentrations. […]

[2] = biological target: T2, b1b2 domain of neuropilin-1 (NRP-1), recombinant (UniProt O14786 273-586, limits assumed); test: fluorescence polarization, recombinant b1b2 domain of NRP-1
T2 construct: domain: b1b2 domain; also called NRP-1 b1b2; b1b2 domain of NRP-1
T2 sequence (looked up): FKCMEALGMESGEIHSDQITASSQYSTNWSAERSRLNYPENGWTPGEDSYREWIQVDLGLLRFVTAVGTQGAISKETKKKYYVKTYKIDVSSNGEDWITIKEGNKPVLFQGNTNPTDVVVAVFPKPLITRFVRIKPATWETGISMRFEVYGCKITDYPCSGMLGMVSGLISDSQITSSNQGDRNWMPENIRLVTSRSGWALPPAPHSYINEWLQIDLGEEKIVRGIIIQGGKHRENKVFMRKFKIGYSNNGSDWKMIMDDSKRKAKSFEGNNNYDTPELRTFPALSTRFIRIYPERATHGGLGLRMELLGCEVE
Procedure: FIG. 8 is a graph showing specificity of TT1 binding. Specificity of TT1 was further evaluated by measuring the binding of FAM-TT1 to recombinant non-target protein, b1b2 domain of neuropilin-1 (NRP-1). The binding was studied by fluorescence polarization. […] Each data point presents average±S.D., n=4-6.
(§1) The assay was initially set up in 20 μl well volume in 384 well plate (Corning Life Sciences), and measurements were carried out using PheraStar FS plate reader (BMG LABTECH, Ortenberg, Germany) in quadruplicate. Peptide and protein stock solutions were diluted to desired concentration with assay buffer (50 mM BIS-TRIS pH 7.4, 0.05% Tween20, 1 mM DTT). FAM-labeled peptides were protected from light during the experiment to avoid photobleaching. Optimal concentration of fluorescein (FAM) labeled-peptides for the assay was determined by measuring the limit of detection (LOD), signal-to-background ratio (S/B), and stability of mP value over series of peptide concentrations. In the binding assay, the concentration of FAM-peptide was kept constant, and the FP was measured over the range of target protein concentrations. The peptide dissociation constant (KD) was obtained by fitting the binding curve into Michaelis-Menten kinetics in GraphPad Prism-software (GraphPad Software, Inc., CA, USA). […]

[3] = biological target: T1, recombinant 6x-His-tagged p32 protein …; test: fluorescence polarization, FAM-TT1 constant, p32 titrated, in BIS-TRIS buffer
Procedure: FIG. 6 is a graph showing the effect of buffer solution on interaction of TT1 and p32. The binding affinity of FAM-labeled TT1 to p32 was studied in different assay buffers: in PBS, HEPES, and BIS-TRIS, respectively. The binding was measured by fluorescence polarization (FP) and observed as increased FP value. Binding constants (KD) were calculated by fitting the binding curves into Michaelis-Menten kinetics. Each data point presents average±S.D., n=4-6.
as §1, with “concentrations.” for “concentrations. The peptide dissociation constant (KD) was obtained by fitting the binding curve into Michaelis-Menten kinetics in GraphPad Prism-software (GraphPad Software, Inc., CA, USA).”

Kd [1]: 23 µM
B1: FAM-labeled LyP-1 peptide (CGNKRTRGC) (peptide)
peptide: {FAM-Ahx}-CGNKRTRGC
modifications: disulfide 1-9 (inferred)
notes: also called FAM-LyP-1

binding result [2]: no binding | Kd [3]: 2300 nM
B2: FAM-labeled TT1 peptide (CKRGARSTC) (peptide)
peptide: {FAM-Ahx}-CKRGARSTC
modifications: disulfide (positions not given here); not fully specified (bridges); also: cyclic peptide, ring type not given here
notes: Synthetic fluorescent peptide used as the probe in the fluorescence polarization assays; also called FAM-TT1; FAM-TT-1
